Source: publication PMC6224390

Molecular target: BG505 SOSIP trimer (HIV-1 (BG505)) (UniProt Q2N0S6)
Test: SEC-MALS

## BG505 SOSIP trimer (from UniProt Q2N0S6 1-860; Q2N0S6 1-860) (complex)
  stoichiometry N: 3
